Laboratory results from US20150010575A1 (SAMSUNG ELECTRONICS, published 2015).

Target: T1, human c-Met/Fc fusion protein (R&D Systems) (human, UniProt P08581 25-932)
T1 construct: Bought from R&D Systems; Coated on microtiter plates at 2 ug/mL; also called human c-Met/Fc protein; not shown: Fc part of the bought fusion protein; not described
Test: ELISA, human c-Met/Fc coated at 2 ug/mL, hybridoma culture, anti-mouse IgG-HRP
Experimental: Human c-Met/Fc fusion protein was seeded in an amount of 50 μL (2 μg/mL)/well to microtiter plates and allowed to adhere to the surface of each well. The antibody that remained unbound was removed by washing.
The hybridoma cell culture obtained in Reference Example 1.1.2 was added in an amount of 50 μL to each well of the plates and incubated for 1 hour. The cells remaining unreacted were washed out with a sufficient amount of Tris-buffered saline and Tween 20 (TBST). Goat anti-mouse IgG-horseradish peroxidase (HRP) was added to the plates and incubated for 1 hour at room temperature. The plates were washed with a sufficient amount of TBST, followed by reacting the peroxidase with a substrate (OPD). Absorbance at 450 nm was measured on an ELISA reader.

T1 sequence (P08581 25-932 limits assumed): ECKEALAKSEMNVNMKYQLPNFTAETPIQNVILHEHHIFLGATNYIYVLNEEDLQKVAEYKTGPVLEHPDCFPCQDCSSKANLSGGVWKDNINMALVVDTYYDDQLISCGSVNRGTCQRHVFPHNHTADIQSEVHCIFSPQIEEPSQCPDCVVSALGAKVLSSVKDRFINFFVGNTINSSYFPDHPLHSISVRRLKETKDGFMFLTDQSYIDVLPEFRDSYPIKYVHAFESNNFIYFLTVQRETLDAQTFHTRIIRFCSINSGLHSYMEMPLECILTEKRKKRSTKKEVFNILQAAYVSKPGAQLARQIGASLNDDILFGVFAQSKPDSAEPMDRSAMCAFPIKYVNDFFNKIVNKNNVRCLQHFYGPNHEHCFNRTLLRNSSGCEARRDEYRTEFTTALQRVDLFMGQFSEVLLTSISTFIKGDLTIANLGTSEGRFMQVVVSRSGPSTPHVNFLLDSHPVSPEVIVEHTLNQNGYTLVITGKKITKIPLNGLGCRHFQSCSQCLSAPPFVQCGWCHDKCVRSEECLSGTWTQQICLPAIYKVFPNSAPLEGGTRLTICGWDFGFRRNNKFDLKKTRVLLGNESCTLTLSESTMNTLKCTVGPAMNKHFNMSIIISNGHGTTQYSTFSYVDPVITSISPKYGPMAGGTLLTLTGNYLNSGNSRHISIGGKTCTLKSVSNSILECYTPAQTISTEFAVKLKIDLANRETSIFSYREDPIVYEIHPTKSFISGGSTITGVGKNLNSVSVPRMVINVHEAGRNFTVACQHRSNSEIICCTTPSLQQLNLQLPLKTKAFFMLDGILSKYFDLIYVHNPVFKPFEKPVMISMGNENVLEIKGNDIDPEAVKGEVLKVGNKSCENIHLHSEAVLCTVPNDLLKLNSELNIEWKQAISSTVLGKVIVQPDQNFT

B1: AbF46, a mouse antibody to c-Met (antibody, V domains shown)
VH: EVKLVESGGGLVQPGGSLRLSCATSGFTFTDYYMSWVRQPPGKALEWLGFIRNKANGYTTEYSASVKGRFTISRDNSQSILYLQMDTLRAEDSATYYCARDNWFAYWGQGTLVTVSA
VL: DILMTQSPSSLTVSAGEKVTMSCKSSQSLLASGNQNNYLAWHQQKPGRSPKMLIIWASTRVSGVPDRFIGSGSGTDFTLTINSVQAEDLAVYYCQQSYSAPLTFGAGTKLELK
notes: Mouse monoclonal antibody, tested as hybridoma culture supernatant in the selection ELISA; also called monoclonal antibody of hybridoma KCLRF-BP-00220
- binding result: binds
